Measured values as given in patent US20250011428A1 (Novartis, published 2025).
Where a chain is given by its changes, count along the chain named.

B1: CD3_1 (antibody, human IgG1, lambda)
heavy: EVQLVESGGGLVQPGGSLKLSCAASGFTFNTYAMNWVRQASGKGLEWVGRIRSKYNNYATYYADSVKDRFTISRDDSKSTLYLQMNSLKTEDTAVYYCVRHGNFGNSYVSWFAYWGQGTLVTVSSASTKGPSVFPLAPSSKSTSGGTAALGCLVKDYFPEPVTVSWNSGALTSGVHTFPAVLQSSGLYSLSSVVTVPSSSLGTQTYICNVNHKPSNTKVDKRVEPKSCDKTHTCPPCPAPELCCHPRVFLFPPKPKDTLMISRTPEVTCVVTGLRDEDPEVKFNWYVDGVEVHNAKTKPREEQYCGCYSVVSVLTVLHQDWLNGKEYKCKVSNKALPAPIEKTISKAKGQPREPQVYTLPPSRDELTKNQVSLTCLVKGFYPSDIAVEWESNGQPENNYKTTPPVLDSDGSFFLYSKLTVDKSRWQQGNVFSCSVMHEALHNHYTQKSLSLSPGK
light: QAVVTQEPSLTVSPGGTVTLTCRSSTGAVTTSNYANWVQQKPGQAPRGLIGGTNKRAPWTPARFSGSLLGDKAALTLSGAQPEDEAEYFCALWYSNLWVFGGGTKLTVLGQPKAAPSVTLFPPSSEELQANKATLVCLISDFYPGAVTVAWKADSSPVKAGVETTTPSKQSNNKYAASSYLSLTPEQWKSHRSYSCQVTHEGSTVEKTVAPTECS
notes: hIgG1
B2: CD3_DANAPA (antibody, human IgG1, lambda, N297A)
heavy: EVQLVESGGGLVQPGGSLKLSCAASGFTFNTYAMNWVRQASGKGLEWVGRIRSKYNNYATYYADSVKDRFTISRDDSKSTLYLQMNSLKTEDTAVYYCVRHGNFGNSYVSWFAYWGQGTLVTVSSASTKGPSVFPLAPSSKSTSGGTAALGCLVKDYFPEPVTVSWNSGALTSGVHTFPAVLQSSGLYSLSSVVTVPSSSLGTQTYICNVNHKPSNTKVDKRVEPKSCDKTHTCPPCPAPELLGGPSVFLFPPKPKDTLMISRTPEVTCVVVAVSHEDPEVKFNWYVDGVEVHNAKTKPREEQYASTYRVVSVLTVLHQDWLNGKEYKCKVSNKALAAPIEKTISKAKGQPREPQVYTLPPSRDELTKNQVSLTCLVKGFYPSDIAVEWESNGQPENNYKTTPPVLDSDGSFFLYSKLTVDKSRWQQGNVFSCSVMHEALHNHYTQKSLSLSPGK
light: B1 light
notes: hIgG1; silencing benchmark
B3: CD3_8 (antibody, human IgG1, lambda)
heavy: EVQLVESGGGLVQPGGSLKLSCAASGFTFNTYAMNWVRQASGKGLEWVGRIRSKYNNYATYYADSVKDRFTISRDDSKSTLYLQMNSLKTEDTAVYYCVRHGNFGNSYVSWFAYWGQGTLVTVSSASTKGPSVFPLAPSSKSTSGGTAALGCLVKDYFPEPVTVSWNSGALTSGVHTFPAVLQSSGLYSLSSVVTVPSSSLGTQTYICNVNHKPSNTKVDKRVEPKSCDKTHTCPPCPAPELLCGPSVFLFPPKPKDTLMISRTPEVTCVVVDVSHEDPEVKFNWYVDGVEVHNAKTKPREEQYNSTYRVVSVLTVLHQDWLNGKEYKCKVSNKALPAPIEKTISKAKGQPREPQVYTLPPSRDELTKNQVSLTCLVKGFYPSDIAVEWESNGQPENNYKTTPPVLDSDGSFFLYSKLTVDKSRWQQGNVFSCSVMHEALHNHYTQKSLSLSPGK
light: B1 light
notes: hIgG1
B4: CD3_9_YTE (antibody, human IgG1, lambda)
heavy: B2 heavy with L243C, M260Y, S262T, T264E, A273D, A305N, A337P
light: B1 light
notes: hIgG1
B5: CD3_11_YTE (antibody, human IgG1, lambda)
heavy: B2 heavy with M260Y, S262T, T264E, A273D, A305C, A337P
light: B1 light
notes: hIgG1
B6: CD3_10 (antibody, human IgG1, lambda)
heavy: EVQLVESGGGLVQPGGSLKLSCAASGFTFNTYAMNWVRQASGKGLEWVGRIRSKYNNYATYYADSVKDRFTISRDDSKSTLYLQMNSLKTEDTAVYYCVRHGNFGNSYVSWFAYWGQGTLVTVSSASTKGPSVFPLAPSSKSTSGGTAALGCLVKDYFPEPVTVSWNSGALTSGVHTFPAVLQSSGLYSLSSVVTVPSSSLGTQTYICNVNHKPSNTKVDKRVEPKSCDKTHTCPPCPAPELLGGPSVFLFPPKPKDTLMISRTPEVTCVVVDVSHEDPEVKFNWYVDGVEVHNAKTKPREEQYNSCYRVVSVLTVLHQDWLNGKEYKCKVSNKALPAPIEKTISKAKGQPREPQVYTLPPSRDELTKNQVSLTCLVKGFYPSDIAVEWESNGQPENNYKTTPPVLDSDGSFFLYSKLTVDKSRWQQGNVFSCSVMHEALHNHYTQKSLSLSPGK
light: B1 light
notes: hIgG1
B7: CD3_9 (antibody, human IgG1, lambda)
heavy: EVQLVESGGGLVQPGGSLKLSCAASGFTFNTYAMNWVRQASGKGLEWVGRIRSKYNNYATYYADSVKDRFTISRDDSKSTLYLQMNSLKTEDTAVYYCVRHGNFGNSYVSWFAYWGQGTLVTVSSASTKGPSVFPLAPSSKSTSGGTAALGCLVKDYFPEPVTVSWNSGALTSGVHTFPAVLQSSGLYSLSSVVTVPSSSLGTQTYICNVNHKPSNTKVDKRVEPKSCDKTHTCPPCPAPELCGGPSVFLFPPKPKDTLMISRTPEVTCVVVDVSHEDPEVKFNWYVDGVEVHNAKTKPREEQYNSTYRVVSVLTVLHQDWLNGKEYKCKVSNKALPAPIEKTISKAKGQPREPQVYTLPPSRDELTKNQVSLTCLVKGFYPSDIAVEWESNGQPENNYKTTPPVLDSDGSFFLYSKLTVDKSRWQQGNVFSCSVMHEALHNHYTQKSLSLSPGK
light: B1 light
notes: hIgG1
B8: CD3_2 (antibody, human IgG1, lambda)
heavy: B1 heavy with R247S, T272V, D276H, S309R
light: B1 light
notes: hIgG1
B9: CD3_1_YTE (antibody, human IgG1, lambda)
heavy: B1 heavy with M260Y, S262T, T264E
light: B1 light
notes: hIgG1
B10: CD3_3_YTE (antibody, human IgG1, lambda)
heavy: B1 heavy with R247S, M260Y, S262T, T264E, S309R
light: B1 light
notes: hIgG1
B11: CD3_6_YTE (antibody, human IgG1, lambda)
heavy: B2 heavy with L243C, G244C, M260Y, S262T, T264E, A273D, A305N, A337P
light: B1 light
notes: hIgG1
B12: CD3_4_YTE (antibody, human IgG1, lambda)
heavy: B1 heavy with R247S, M260Y, S262T, T264E, T272V, G273D, L274V, R275S, D276H, S309R
light: B1 light
notes: hIgG1
B13: CD3_5_YTE (antibody, human IgG1, lambda)
heavy: B2 heavy with L243C, G244C, M260Y, S262T, T264E, A273D, A305C, T307C, A337P
light: B1 light
notes: hIgG1
B14: CD3_WT_YTE (antibody, human IgG1, lambda)
heavy: B2 heavy with M260Y, S262T, T264E, A273D, A305N, A337P
light: B1 light
notes: hIgG1
B15: CD3_4 (antibody, human IgG1, lambda)
heavy: B1 heavy with R247S, T272V, G273D, L274V, R275S, D276H, S309R
light: B1 light
notes: hIgG1
B16: CD3_7_YTE (antibody, human IgG1, lambda)
heavy: B2 heavy with M260Y, S262T, T264E, A273D, A305C, T307C, A337P
light: B1 light
notes: hIgG1
B17: CD3_3 (antibody, human IgG1, lambda)
heavy: B1 heavy with R247S, S309R
light: B1 light
notes: hIgG1

molecular target: hC1q (human, UniProt P02745 23-245; P02746 28-253; P02747 29-245); experiment: SPR Biacore T200; IgG amine-coupled on CM5, hC1q as analyte; response normalized to parental (=100)
Sequence (P02745 23-245 limits assumed, chain 1 of 3): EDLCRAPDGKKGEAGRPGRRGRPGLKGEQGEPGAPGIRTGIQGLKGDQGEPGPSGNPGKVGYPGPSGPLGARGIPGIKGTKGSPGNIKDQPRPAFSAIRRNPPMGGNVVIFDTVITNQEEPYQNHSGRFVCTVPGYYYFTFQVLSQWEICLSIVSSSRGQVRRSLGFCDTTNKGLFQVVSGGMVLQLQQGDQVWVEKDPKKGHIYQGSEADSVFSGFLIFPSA
Sequence (P02746 28-253 limits assumed, chain 2 of 3): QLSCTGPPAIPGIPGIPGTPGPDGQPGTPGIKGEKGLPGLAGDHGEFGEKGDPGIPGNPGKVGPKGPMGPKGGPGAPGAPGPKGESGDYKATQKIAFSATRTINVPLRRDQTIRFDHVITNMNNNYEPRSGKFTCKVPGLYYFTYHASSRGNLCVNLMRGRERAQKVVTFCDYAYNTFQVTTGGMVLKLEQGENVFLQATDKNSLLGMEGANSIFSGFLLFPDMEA
Sequence (P02747 29-245 limits assumed, chain 3 of 3): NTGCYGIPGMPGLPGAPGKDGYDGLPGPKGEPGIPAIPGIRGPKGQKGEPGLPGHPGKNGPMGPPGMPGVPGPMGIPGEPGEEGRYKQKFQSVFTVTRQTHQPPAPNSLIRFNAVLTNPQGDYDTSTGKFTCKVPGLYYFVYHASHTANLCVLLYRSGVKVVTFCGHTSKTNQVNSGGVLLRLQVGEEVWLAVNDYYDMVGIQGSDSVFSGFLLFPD
Experimental: (§1) Kinetics and binding capacity were measured on a BIAcore® T200 instrument (GE Healthcare, Glattbrugg, Switzerland) at room temperature, with proteins diluted in running buffer 10 mM NaP, 150 mM NaCl, 0.05% Tween 20, pH7.6. A CM5 sensor chip (Sensor Chip SA, GE Healthcare Life Sciences) was used to immobilized engineered immunoglobulins by amine coupling. Then, recombinant human hFcγR1a, or recombinant human hFcγR3a (F158V), or recombinant human hFcRn, or hC1q was used as the analyte.
(§2) Binding data were acquired by subsequent injection of analyte dilution series on the reference and measuring flow cells. Zero concentration samples (running buffer only) were included to allow double referencing during data evaluation. For data evaluation, doubled referenced sensorgrams were analyzed and the maximum response reached during the experiment was monitored. Maximum response describes the binding capacity of the surface in terms of the response at saturation. Finally, measured maximum responses were normalized to the one measured using parental immunoglobulin (not engineered).

Binder	Maximum response at 20 nM hC1q (RU)
B1	5
B2	1
B3	1
B4	4
B5	1
B6	3
B7	10

molecular target: T1, hCD3epsilon-FC antigen (human, UniProt P07766 23-126); experiment: SPR Biacore T200; hCD3epsilon-FC amine-coupled on CM5, IgG as analyte; set-up: unit not given here
T1 construct: immobilized by amine coupling on CM5; also called human CD3epsilon
T1 sequence (P07766 23-126 limits assumed): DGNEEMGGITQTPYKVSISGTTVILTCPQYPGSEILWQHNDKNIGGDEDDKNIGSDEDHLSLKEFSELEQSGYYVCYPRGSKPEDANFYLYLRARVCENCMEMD

Binder	Maximum response at 125 nM hIgG1
B8	386
B9	371
B10	371
B1	371
B11	340
B12	427
B13	322
B14	342
B2	392
B15	470
B16	367
B17	375

molecular target: T1, hCD3epsilon-FC antigen; experiment: SPR Biacore T200; hCD3epsilon-FC amine-coupled on CM5, IgG as analyte; 1:1 model, apparent KD (bivalent analyte)
Experimental: A CM5 sensor chip (Sensor Chip SA, GE Healthcare Life Sciences) was used to immobilize hCD3epsilon-FC antigen by amine coupling. Then, engineered anti-CD3 hIgG1 were used as the analyte.
Binding data were acquired by subsequent injection of analyte dilution series on the reference and measuring flow cells. Zero concentration samples (running buffer only) were included to allow double referencing during data evaluation. For data evaluation, doubled referenced sensorgrams were analyzed by applying a 1:1 binding model analysis to generate the equilibrium dissociation constant (KD). Binding constant described Table 7 are considered as apparent KD since immunoglobulins used as analyte are bivalent for the immobilized antigen. In addition, maximum response reached during the experiment was monitored. Maximum response describes the binding capacity of the surface in terms of the response at saturation. Finally, measured maximum responses were normalized to the one measured using parental immunoglobulin (not engineered).

Binder	Kd [nM]
B8	2.24
B9	2.09
B10	2.1
B1	2.06
B11	2.42
B12	2.74
B13	3.74
B14	2.34
B2	3.27
B15	3.38
B16	2.31
B17	2.04

molecular target: T2, recombinant human hFcRn (human, UniProt P55899 24-297; P61769 21-119); experiment: SPR Biacore T200; IgG amine-coupled on CM5, hFcRn as analyte; response normalized to parental (=100)
T2 construct: FcRn is normally a heterodimer with it
T2 sequence (P55899 24-297 limits assumed, chain 1 of 2): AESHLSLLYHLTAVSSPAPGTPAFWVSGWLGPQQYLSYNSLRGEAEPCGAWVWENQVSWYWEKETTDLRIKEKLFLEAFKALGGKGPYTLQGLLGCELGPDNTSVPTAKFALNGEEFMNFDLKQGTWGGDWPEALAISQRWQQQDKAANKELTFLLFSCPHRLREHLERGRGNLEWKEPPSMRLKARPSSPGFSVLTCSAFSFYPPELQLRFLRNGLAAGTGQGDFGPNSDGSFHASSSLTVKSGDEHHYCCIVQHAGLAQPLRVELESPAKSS
T2 sequence (P61769 21-119 limits assumed, chain 2 of 2): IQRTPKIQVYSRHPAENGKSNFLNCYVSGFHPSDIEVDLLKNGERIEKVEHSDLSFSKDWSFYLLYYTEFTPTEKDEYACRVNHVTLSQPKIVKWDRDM
Experimental: as §1, §2

Binder	Maximum response at 1840 nM hFcRn (RU)
B9	290
B11	720
B13	340
B14	586
B3	126
B4	696
B16	284
B5	230
B6	126
B7	122

molecular target: T3, recombinant human hFcγR1a (human, UniProt P12314 16-288, limits assumed); experiment: SPR Biacore T200; IgG amine-coupled on CM5, receptor as analyte; response normalized to parental (=100);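 further: measured at room temperature in pH 7.6 phosphate buffer with Tween 20, double-referenced sensorgrams, maximum response taken as binding capacity at saturation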
T3 construct: recombinant, analyte in SPR; also called FcγRI
T3 sequence (P12314 16-288 limits assumed): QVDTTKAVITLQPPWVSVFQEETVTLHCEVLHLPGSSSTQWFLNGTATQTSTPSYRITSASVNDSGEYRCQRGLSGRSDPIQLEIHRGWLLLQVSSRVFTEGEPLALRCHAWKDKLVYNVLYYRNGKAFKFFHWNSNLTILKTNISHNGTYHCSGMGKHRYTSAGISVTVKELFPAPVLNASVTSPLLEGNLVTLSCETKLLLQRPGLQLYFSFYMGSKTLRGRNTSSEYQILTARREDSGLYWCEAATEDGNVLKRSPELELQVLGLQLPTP
Experimental: as §1, §2

Binder	Maximum response at 100 nM hFcγR1a (RU)
B8	5
B9	6
B10	7
B1	2
B11	10
B12	4
B13	7
B14	97
B2	6
B3	2
B15	4
B4	2
B16	31
B17	3
B5	12
B6	18
B7	2

molecular target: T4, recombinant human hFcγR3a (F158V) (human, UniProt P08637 17-208); experiment: as above
T4 construct: also called FcγRIII
T4 sequence (P08637 17-208 F176V): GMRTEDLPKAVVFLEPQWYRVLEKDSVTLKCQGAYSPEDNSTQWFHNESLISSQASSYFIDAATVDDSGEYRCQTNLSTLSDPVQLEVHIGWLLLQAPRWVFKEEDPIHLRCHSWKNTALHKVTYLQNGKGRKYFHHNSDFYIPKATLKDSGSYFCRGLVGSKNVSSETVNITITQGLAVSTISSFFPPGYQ
Experimental: as §1, §2

Binder	Maximum response at 300 nM hFcγR3a F158V (RU)
B8	20
B9	20
B10	10
B1	10
B11	15
B12	10
B13	17
B14	71
B2	10
B15	10
B16	19
B17	2
